Measured values taken from publication PMC7412794.
“Also recorded” adds a separate entry of the source.

Assays:
[1] = invMM kinetics, 12 g/L Avicel; settings: glycan lost; control: untreated TrCel7A CD (no linker, no CBM)
DSC = settings: glycan lost
[2] = pNP-Lac activity after 1 h at Tm−5 °C; settings: glycan lost
[3] = convMM kinetics, 50 °C, 1 h, reducing ends; settings: glycan lost; control: WTAo
[4] = invMM kinetics (enzyme excess), 50 °C, 1 h; settings: glycan lost; control: WTAo

B1: Trichoderma reesei Cel7A (TrCel7A): endoglycosidase H (protein)
parent chain: MYRKLAVISAFLATARAQSACTLQSETHPPLTWQKCSSGGTCTQQTGSVVIDANWRWTHATNSSTNCYDGNTWSSTLCPDNETCAKNCCLDGAAYASTYGVTTSGNSLSIGFVTQSAQKNVGARLYLMASDTTYQEFTLLGNEFSFDVDVSQLPCGLNGALYFVSMDADGGVSKYPTNTAGAKYGTGYCDSQCPRDLKFINGQANVEGWEPSSNNANTGIGGHGSCCSEMDIWEANSISEALTPHPCTTVGQEICEGDGCGGTYSDNRYGGTCDPDGCDWNPYRLGNTSFYGPGSSFTLDTTKKLTVVTQFETSGAINRYYVQNGVTFQQPNAELGSYSGNELNDDYCTAEEAEFGGSSFSDKGGLTQFKKATSGGMVLVMSLWDDYYANMLWLDSTYPTNETSSTPGAVRGSCSTSSGVPAQVESQSPNAKVTFSNIKFGPIGSTGNPSGGNPPGGNRGTTTTRRPATTTGSSPGPTQSHYGQCGGIGYSGPTVCASGTTCQVLNPYYSQCL
enzymatic_activity [1]: increases

B2: Trichoderma reesei Cel7A (TrCel7A): N384QAo (protein)
parent chain: B1 parent chain
stability_or_folding, Tm (DSC; control: WTAo): decreases, 66.1 vs 67.9
stability_or_folding, other: residual activity ([2]; control: WTAo): no change, 57 ± 3 vs 57 ± 1
enzymatic_activity, other: convVmax/E0 (kcat) [3]: decreases, 0.34 ± 0.01 vs 0.48 ± 0.02; also recorded: decreases, 1.01 ± 0.03 vs 1.46 ± 0.14

B3: Trichoderma reesei Cel7A (TrCel7A): N270QAo (protein)
parent chain: B1 parent chain
stability_or_folding, Tm (DSC; control: WTAo): decreases, 66.9 vs 67.9
stability_or_folding, other: residual activity ([2]; control: WTAo): no change, 60 ± 3 vs 57 ± 1

B4: Trichoderma reesei Cel7A (TrCel7A): ΔN-glycTr (protein)
parent chain: B1 parent chain
stability_or_folding, Tm (DSC; control: WTTr): decreases, 65.2 vs 67.9
stability_or_folding, other: residual activity ([2]; control: WTTr): no change, 44 ± 1 vs 45 ± 2

B5: Trichoderma reesei Cel7A (TrCel7A): ΔN-glycAo (protein)
parent chain: B1 parent chain
stability_or_folding, Tm (DSC; control: WTAo): decreases, 65.0 vs 67.9
stability_or_folding, other: residual activity ([2]; control: WTAo): decreases, 41 ± 2 vs 57 ± 1

B6: Trichoderma reesei Cel7A (TrCel7A): N45QAo (protein)
parent chain: B1 parent chain
stability_or_folding, Tm (DSC; control: WTAo): decreases, 67.4 vs 67.9
stability_or_folding, other: residual activity ([2]; control: WTAo): decreases, 38 ± 2 vs 57 ± 1
enzymatic_activity, other: convVmax/E0 (kcat) [3]: no change, 1.33 ± 0.09 vs 1.46 ± 0.14
enzymatic_activity, other: invVmax/S0 [4]: increases, 0.52 ± 0.02 vs 0.45 ± 0.02
